In US9994881B2, “Functionalized carboxylic acids and alcohols by reverse fatty acid oxidation in engineered microbes” (William Marsh Rice University, priority 2011, dated 2018):
Marks after values point to notes of the source that are not given here.

B1: YciA: E. coli acyl-CoA thioesterase (protein, UniProt P0A8Z0 1-132, looked up)
Acyl-CoA thioester hydrolase …: MSTTHNVPQGDLVLRTLAMPADTNANGDIFGGWLMSQMDIGGAILAKEIAHGRVVTVRVEGMTFLRPVAVGDVVCCYARCVQKGTTSVSINIEVWVKKVASEPIGQRYKATEALFKYVAVDPEGKPRALPVE
B2: YdiI: E. coli Acyl-CoA thioesterase (protein, UniProt P77781 1-136, looked up)
1,4-dihydroxy-2-naphthoyl-CoA …: MIWKRKITLEALNAMGEGNMVGFLDIRFEHIGDDTLEATMPVDSRTKQPFGLLHGGASVVLAESIGSVAGYLCTEGEQKVVGLEINANHVRSAREGRVRGVCKPLHLGSRHQVWQIEIFDEKGRLCCSSRLTTAIL
B3: FadM: E. coli long-chain acyl-CoA thioesterase (protein, UniProt P77712 1-132, looked up)
Long-chain acyl-CoA …: MQTQIKVRGYHLDVYQHVNNARYLEFLEEARWDGLENSDSFQWMTAHNIAFVVVNININYRRPAVLSDLLTITSQLQQLNGKSGILSQVITLEPEGQVVADALITFVCIDLKTQKALALEGELREKLEQMVK
B4: TesA: E. coli multifunctional acyl-CoA thioesterase I and protease I and lysophospholipase L1 (protein, UniProt P0ADA1 27-208, looked up)
Thioesterase 1/protease …: ADTLLILGDSLSAGYRMSASAAWPALLNDKWQSKTSVVNASISGDTSQQGLARLPALLKQHQPRWVLVELGGNDGLRGFQPQQTEQTLRQILQDVKAANAEPLLMQIRLPANYGRRYNEAFSAIYPKLAKEFDVPLLPFFMEEVYLKPQWMQDDGIHPNRDAQPFIADWMAKQLQPLVNHDS
B5: TesB: E. coli thioesterase II (protein, UniProt P0AGG2 2-286, looked up)
Acyl-CoA thioesterase 2: SQALKNLLTLLNLEKIEEGLFRGQSEDLGLRQVFGGQVVGQALYAAKETVPEERLVHSFHSYFLRPGDSKKPIIYDVETLRDGNSFSARRVAAIQNGKPIFYMTASFQAPEAGFEHQKTMPSAPAPDGLPSETQIAQSLAHLLPPVLKDKFICDRPLEVRPVEFHNPLKGHVAEPHRQVWIRANGSVPDDLRVHQYLLGYASDLNFLPVALQPHGIGFLEPGIQIATIDHSMWFHRPFNLNEWLLYSVESTSASSARGFVRGEFYTQDGVLVASTVQEGVMRNHN
B6: YbgC: E. coli Acyl-CoA thioesterase (protein, UniProt P0A8Z3 1-134, looked up)
Acyl-CoA thioester hydrolase …: MNTTLFRWPVRVYYEDTDAGGVVYHASYVAFYERARTEMLRHHHFSQQALMAERVAFVVRKMTVEYYAPARLDDMLEIQTEITSMRGTSLVFTQRIVNAENTLLNEAEVLVVCVDPLKMKPRALPKSIVAEFKQ

Key:
[1] = thioesterase activity (production of TNB at 412 nm); type: biochemical; conditions: expressed from pCA24N; for Specific activities of selected thioesterases on Acetoacetyl-CoA / Specific activities of selected thioesterases on Acetyl-CoA / Specific activities of selected thioesterases on Butyryl-CoA / Specific activities of selected thioesterases on Crotonyl-CoA / Specific activities of selected thioesterases on RS-3-Hydroxybutyryl-CoA: crude cell extract, 200 μM substrate; for Specific Activity: Table 1
Excerpt: (§1) For AtoB and thioesterase characterization assays, the pCA24N-gene (-gfp) plasmids from the ASKA collection^44 were used. For expression of E. gracilis TER for kinetic characterization, the egTER gene was cloned into pTrcHis2A using the In-Fusion protocol (Clontech Laboratories, Inc., Mountain View, Calif.) following PCR amplification from the aforementioned codon-optimized egTER containing plasmid with the primer pair of F1pTH6hisEgter and R1pTH6hisEgter (Supplementary Table S3).
(§2) Cultures for enzymatic assays were grown overnight in 100 mL of LB media at 37° C. in 250 mL baffled flasks (Wheaton Industries, Inc., Millville, N.J.) in E. coli BL21 (DE3) cells induced with either 1 mM IPTG (pCA24N, pTrcHis2A) or 1 mM Arabinose (pUCBB-pBAD) at an OD600˜0.6, or expressed constitutively (pUCBB-ntH6). Reactions were monitored on either a Synergy HT plate reader (BioTek Instruments, Inc., Winooski, Vt.) at 25° C. (for reactions monitored at 300 nm or higher) or in a Biomate 5 Spectrophotometer (Thermo Scientific, Waltham, Mass.) for reactions at 263 nm.
(§3) For specific activity assays (reported in μmol substrate/mg protein/min) these supernatant fractions were utilized and protein concentration was established using the Bradford Reagent (Thermo Scientific, Waltham, Mass.) using BSA as the protein standard. Linearity was established for each reaction and the background non-enzymatic rate was subtracted to establish the activity.
For kinetic characterization, an appropriate amount of enzyme was established by checking linear range near predicted KM values. Then, the rates were measured for a range of substrates in order to establish kcat and KM. In the cases of FadB for the crotonase reaction and FadA in the “forward” thiolase reaction coupled with HBD, substrate saturation could not be established, as such, the kcat/KM for the reaction was determined by dividing the linear slope of Velocity vs. [Substrate] by the amount of enzyme used in the assays. For reactions that could be saturated, Velocity vs. [Substrate] was fitted by the EnzKIN Matlab module (mathworks.com/matlabcentral/fileexchange/26653) to establish Vmax and KM.
(§4) Thioesterase activity was monitored by following the production of TNB at 412 nm ([…])^30. Reactions were carried out in the presence of 100 mM Tris pH 7.5, 200 mM KCl, […] DTNB and 200 μM of the ‘-CoA’ substrate in a volume of 200 μL at 25° C.

[2] = as above; type: biochemical; conditions: crude cell extract; 200 μM substrate; expressed from pCA24N
Excerpt: as §1, §2, §3, §4

Molecule | Specific activities of selected thioesterases on Acetoacetyl-CoA [1] [μmol/mg protein/min] | Specific activities of selected thioesterases on Acetyl-CoA [1] [μmol/mg protein/min] | Specific activities of selected thioesterases on Butyryl-CoA [1] [μmol/mg protein/min] | Specific activities of selected thioesterases on Crotonyl-CoA [1] [μmol/mg protein/min] | Specific activities of selected thioesterases on RS-3-Hydroxybutyryl-CoA [1] [μmol/mg protein/min] | Specific Activity ([1]; substrate Acetoacetyl-CoA) | Specific Activity ([1]; substrate Acetyl-CoA) | Specific Activity ([1]; substrate Butyryl-CoA) | Specific Activity ([1]; substrate Crotonyl-CoA) | Specific Activity ([1]; substrate RS-3-Hydroxybutyryl-CoA) | Specific activities of selected thioesterases on Decanyl-CoA [2] [μmol/mg protein/min]
B1 | 0.672 ± 0.007 | 0.222 ± 0.007 | 2.9 ± 0.2 | 0.27 ± 0.03 | 0.441 ± 0.009 | 0.672 ± 0.007^b μmol/mg/min | 0.222 ± 0.007^b μmol/mg/min | 2.9 ± 0.2^b μmol/mg/min | 0.27 ± 0.03^b μmol/mg/min | 0.441 ± 0.009^b μmol/mg/min | 3.7 ± 0.3
B2 | 0.047 ± 0.001 | 0.036 ± 0.003 | 0.0917 ± 0.0007 | 0.078 ± 0.005 | 0.012 ± 0.002 |  |  |  |  |  | 0.18 ± 0.04
B3 | 0.042 ± 0.004 | 0.0331 ± 0.0006 | 0.027 ± 0.001 | 0.0017 ± 0.0003 | 0.009 ± 0.002 |  |  |  |  |  | 0.034 ± 0.003
B4 | 0.044 ± 0.005 | 0.036 ± 0.002 | 0.049 ± 0.002 | 0.007 ± 0.003 | 0.02 ± 0.01 |  |  |  |  |  | 0.47 ± 0.04
B5 | 0.056 ± 0.001 | 0.030 ± 0.001 | 0.101 ± 0.002 | 0.010 ± 0.001 | 0.032 ± 0.002 |  |  |  |  |  | 0.6 ± 0.1
B6 | 0.065 ± 0.002 | 0.036 ± 0.002 | 0.045 ± 0.007 | 0.006 ± 0.001 | 0.016 ± 0.004 |  |  |  |  |  | 0.06 ± 0.02
